Substitutions are numbered along the chain they refer to.
T1: hCEACAM5 NA1B1, human CEACAM5 N-A1-B1 domain (35-320) (human, UniProt P06731 35-320)
T1 construct: Followed by 6 amino acid His-Tag; also called hCEACAM5 N-ter-A1-B1
T1 sequence: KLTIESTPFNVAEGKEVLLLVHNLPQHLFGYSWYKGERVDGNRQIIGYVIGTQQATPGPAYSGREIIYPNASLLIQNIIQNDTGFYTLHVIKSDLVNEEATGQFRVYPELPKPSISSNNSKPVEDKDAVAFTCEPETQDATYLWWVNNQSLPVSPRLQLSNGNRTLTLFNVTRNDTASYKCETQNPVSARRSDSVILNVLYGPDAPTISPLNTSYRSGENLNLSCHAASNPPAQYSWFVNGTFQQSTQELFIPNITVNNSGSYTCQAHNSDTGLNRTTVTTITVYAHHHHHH

T2: CEACAM5 A3B3, human CEACAM5 A3-B3 domain (499-685) (human, UniProt P06731 499-685)
T2 construct: Followed by 6 amino acid His-Tag; also called hCEACAM5 A3-B3; human A3B3 domain
T2 sequence: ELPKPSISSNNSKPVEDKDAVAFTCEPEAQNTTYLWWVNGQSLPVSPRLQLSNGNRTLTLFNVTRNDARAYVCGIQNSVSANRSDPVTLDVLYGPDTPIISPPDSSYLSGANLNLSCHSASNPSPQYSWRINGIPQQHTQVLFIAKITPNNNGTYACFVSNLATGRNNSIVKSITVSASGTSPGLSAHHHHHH

T3: human CEACAM5 expressed on the surface of tumor cells (human, UniProt P06731 35-685)
T3 construct: Endogenous CEACAM5 of human tumor cells; also called hCEACAM5 on MKN45 cells; CEACAM5 on CR-IGR-034P primary colon tumor cells
T3 sequence: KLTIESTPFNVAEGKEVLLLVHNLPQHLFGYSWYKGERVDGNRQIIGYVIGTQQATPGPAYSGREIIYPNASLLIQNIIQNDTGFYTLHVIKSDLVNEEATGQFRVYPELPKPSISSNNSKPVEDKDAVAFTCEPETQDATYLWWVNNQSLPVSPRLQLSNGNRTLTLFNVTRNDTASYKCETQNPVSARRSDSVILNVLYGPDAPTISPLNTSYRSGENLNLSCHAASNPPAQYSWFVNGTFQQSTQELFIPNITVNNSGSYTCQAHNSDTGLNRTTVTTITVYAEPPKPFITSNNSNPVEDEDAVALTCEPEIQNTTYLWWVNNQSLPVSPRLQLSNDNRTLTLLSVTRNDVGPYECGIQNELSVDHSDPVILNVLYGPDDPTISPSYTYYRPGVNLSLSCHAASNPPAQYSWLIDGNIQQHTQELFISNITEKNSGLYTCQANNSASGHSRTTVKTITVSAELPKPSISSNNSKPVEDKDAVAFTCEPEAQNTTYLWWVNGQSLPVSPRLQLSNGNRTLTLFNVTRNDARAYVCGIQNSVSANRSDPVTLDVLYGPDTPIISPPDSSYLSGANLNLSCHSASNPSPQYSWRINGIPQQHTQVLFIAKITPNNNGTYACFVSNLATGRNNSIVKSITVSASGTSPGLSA

T4: cCEACAM5 A3B3, M. fascicularis CEACAM5 A3-B3 domain (499-688) (Macaca fascicularis)
T4 construct: Followed by 24 amino acid extension containing a His-Tag; also called cynomolgus CEACAM5 A3-B3
T4 chain: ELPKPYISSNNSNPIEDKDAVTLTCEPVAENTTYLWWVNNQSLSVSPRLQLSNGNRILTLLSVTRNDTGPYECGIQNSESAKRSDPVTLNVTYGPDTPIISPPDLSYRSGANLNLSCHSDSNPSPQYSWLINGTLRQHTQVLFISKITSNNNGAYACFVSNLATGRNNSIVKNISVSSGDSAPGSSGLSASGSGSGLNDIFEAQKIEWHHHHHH

B1: huMAb2-3 (antibody, human IgG1, kappa, V domains shown)
VH: EVQLQESGPGLVKPGGSLSLSCAASGFVFSSYDMSWVRQTPERGLEWVAYISSGGGITYAPSTVKGRFTVSRDNAKNTLYLQMNSLTSEDTAVYYCAAHYFGSSGPFAYWGQGTLVTVSS
VL: DIQMTQSPASLSASVGDRVTITCRASENIFSYLAWYQQKPGKSPKLLVYNTRTLAEGVPSRFSGSGSGTDFSLTISSLQPEDFATYYCQHHYGTPFTFGSGTKLEIKR
notes: Humanized MAb2, human IgG1 / Ckappa; also called MAb2_VL1cVH1a-IgG1
B2: huMAb2-1 (antibody, V domains shown)
VH: B1 VH with G44R, A60F, V93I, S120A
VL: DIQMTQSPASLSASVGDTVTITCRASENIFSYLAWYQQKPGKSPKLLVYNTKTLAEGVPSRFSGSGSGTQFSLTISSLQPEDFGSYYCQHHYGTPFTFGSGTKLEIK
notes: Humanized MAb2 (VL1 + VH1) fused to human IgG1 and human Ckappa constant domains; also called MAb2_VL1VH1-IgG1; MAb2VL1VH1-IgG1
B3: huMAb2-4 (antibody, human IgG1, kappa, V domains shown)
VH: B1 VH with G44R, A60F, V93I, S120A
VL: B1 VL with R18T, D70Q, A84G, T85S
notes: Humanized MAb2, human IgG1 / Ckappa; also called MAb2_VL1d VH1-IgG1; MAb2_VL1dVH1-IgG1
B4: huMAb2-2 (antibody, V domains shown)
VH: B1 VH
VL: B2 VL with T18R, Q70D, G84A, S85T
notes: Humanized MAb2 (VL1a + VH1a) fused to human IgG1 and human Ckappa constant domains; also called MAb2_VL1aVH1a-IgG1; MA2_VL1aVH1a-IgG1
B5: chMAb2 (antibody, human IgG1, kappa, V domains shown)
VH: EVQLQESGGVLVKPGGSLKLSCAASGFVFSSYDMSWVRQTPEKRLEWVAYISSGGGITYFPDTVQGRFTVSRDNAKNTLYLQMNSLKSEDTAIYYCAAHYFGSSGPFAYWGQGTLVTVSA
VL: B1 VL with D17E, R18T, P40Q, K45Q, R52K, D70Q, T74K, S76N, A84G, T85S
notes: Chimeric, human IgG1, Ck isotype; also called MAb2-IgG1; chimeric MAb2
B6: antibody MAb1 (antibody, IgG1, V domains shown)
VH: EVMLVESGGGLVKPGGSLKLSCAASGFTFSSYAMSWVRQTPEKRLEWVATISSGGSYIYYLDSVKGRFTISRDNAKNTLYLQMSSLRSEDTAMYYCARPAYYGNPAMDYWGQGTSVTVSS
VL: DILMTQSQKFMSTSVGDRVSVTCKASQNVGTNVAWYQQKPGQSPKPLIYSASYRYSGVPDRFTGSGSGTDFTLTISNVQSEDLAEYFCQQYNSYPLYTFGGGTKLEIK
B7: antibody MAb3 (antibody, IgG1, V domains shown)
VH: EVKLVESGGGLVKPGGSLTLPCAASGFTFSRYAMSWVRQTPEKRLEWVASISSGGDTYYPDSVKGRFTVSRDNARNILFLQMSSLRSEDTGMYYCARVNYYDSSFLDWWGQGTTLTVSS
VL: B6 VL with L3V, K9R, S14L, V15E, P46A, S93N
notes: Murine monoclonal from hybridoma, IgG1, kappa
B8: antibody MAb4 (antibody, IgG1, V domains shown)
VH: EVQLVESGGGLVKPGGSLKLSCAASGFTFSSYDMSWVRQTPEKRLEWVAFISSYGGRTYYADTVKGRFTISRDNAKNTLYLQMSSLKSEDTAMFYCAAHYFGTSGPFAYWGQGTLVTVSA
VL: DIQMTQSPASLSASVGETVTITCRASENIYSYFAWYQQKQGKSPQLLVYNAKILAEGVPSRFSGSGSGTQFSLKINSLQPEDFGTYYCQHHYGIPFTFGSGTKLELK
notes: as for B7
B9: antibody MAb5 (antibody, IgG1, V domains shown)
VH: ELQLVESGGVLVKPGGSLKLSCAASGFAFSSYDMSWVRQTPEKRLEWVTYINSGGGITYYPDTVKGRFTISRDNARNTLYLQMSSLKSEDTAIYYCTAHYFGSSGPFAYWGQGTLVTVSA
VL: B8 VL with F33L, I53T, A55T, T85S, I94T, L106I
notes: as for B7

These binders were tested against T1, hCEACAM5 NA1B1, human CEACAM5 N-A1-B1 … (assay: ELISA on CEACAM5 domains).

percentage of binding compared to full binding with human CEACAM5 | Binder
0.4% | B1
0.4% | B2
0.3% | B3
0.4% | B4
0.5% | B5

The binders below were run against T2, CEACAM5 A3B3, human CEACAM5 A3-B3 … (assay: ELISA on CEACAM5 domains).

percentage of binding compared to full binding with human CEACAM5 | Binder
100% | B1
100% | B2
100% | B3
100% | B4
100% | B5

The binders below were run against T3, human CEACAM5 expressed on the surface … (assay: flow cytometry on MKN45 cells).
Method: The apparent affinity of anti-CEACAM5 antibodies to hCEACAM5 expressed on the surface of human MKN45 (DSMZ, ACC 409) tumoral cells were determined by Guava® easyCyte™ 8HT Flow Cytometry System. MKN45 tumoral cells were coated at 40,000 cells/well on 96-well High Bind plate (MSD L15XB-3) and 100 μL/well of anti-CEACAM5 antibodies were added in 2-fold serial dilutions starting at 20 μg/ml up to 12 dilutions in assay diluant for 45 min at 4° C. and washed three times with PBS 1% BSA. 100 μL/well of goat anti-mouse IgG conjugated with Alexa647 (Invitrogen; # A2135) was added for 45 min at 4° C. and washed three times with PBS 1% BSA. The antibody binding was evaluated after centrifugation and resuspension of cells by adding 200 μl/well PBS 1% BSA and read using Guava® easyCyte™ 8HT Flow Cytometry System. Apparent KD and EC₅₀ values were estimated using BIOST@T-BINDING and BIOST@T-SPEED softwares, respectively.

EC50 | Binder
16 nM | B6
6.2 nM | B7
4.9 nM | B8
0.73 nM | B9

These binders were tested against T3, human CEACAM5 expressed on the surface … (assay: apparent KD, flow cytometry on CR-IGR-034P primary colon tumor cells).
Method: Advanced human primary colon tumor CR-IGR-034P (Julien et al., Clin Cancer Res Oct. 1, 2012 18:5314-5328) was obtained from Patient-derived xenograft in mice. Tumor CR-IGR-034P was enzymatically dissociated using collagenase Type IV (Invitrogen; #17104-019) and deoxyribonuclease I (Invitrogen; #18047-019) for 1 h at […], Cell viability was estimated by Viacount application using Guava® easyCyte™ 8HT Flow Cytometry System. […] 100 μL/well of goat anti-mouse IgG conjugated with Alexa647 (Invitrogen; # A2135) or goat anti-human IgG conjugated with Alexa488 (Invitrogen; # A11013) was added for 45 min at 4° C. and washed three times with PBS 1% BSA. The antibody binding was evaluated after centrifugation and resuspension of cells by adding 200 pliwell PBS 1% BSA and read using Guava® easyCyte™ 8HT Flow Cytometry System. Apparent KD and EC50 values were estimated using BIOST@T-BINDING and BIOST@T-SPEED softwares, respectively.

Kd | Binder
1.92 nM | B6
1.01 nM | B7
0.16 nM | B8
0.5 nM | B9

Target: T4, cCEACAM5 A3B3, M. fascicularis CEACAM5 …
Assay: ELISA on coated recombinant CEACAM5 protein or domain, anti-mouse IgG-HRP, OD 450 nm
Method: Domain mapping of anti-CEACAM5 antibodies to human CEACAM5 and cynomolgus CEACAM5 proteins was determined by ELISA. […] Purified antibodies were added to the plates and detected by using rabbit anti-mouse IgG conjugated with horseradish peroxidase (Sigma; #A9044). Antibody binding was visualized by adding TMB-H2O2 buffer and read at a wavelength of 450 nm.

binding result | Binder
binds | B6
binds | B7
binds | B8
binds | B9

From US20220340682A1 (Sanofi, published 2022)
